Measured values reported in US20240124560A1.

How the values were obtained:
Experiment in all cases: cell-based or functional assay
[1] = target: HIV-1 Env of NAC_93IN905 (HIV-1)
[2] = target: HIV-1 Env of NAC_BaL.26 (HIV-1)
[3] = target: HIV-1 Env of NAC_TRJO.58 (HIV-1)
[4] = target: HIV-1 Env of NHI-028_CAP210.E8 (HIV-1)
[5] = target: HIV-1 Env of NIH-016_SC05.8C11.2344 (HIV-1)
[6] = target: HIV-1 Env of NIH-024_ZM53M.PB12 (HIV-1)
[7] = target: HIV-1 Env of NIH-027_CAP45.G3 (HIV-1)
[8] = target: HIV-1 Env of NIH-043_ZM249M.B10 (HIV-1)
[9] = target: HIV-1 Env of NIH-045_7030102001E5(Rev.) (HIV-1)
[10] = target: HIV-1 Env of NIH-048_CNE19 (HIV-1)
[11] = target: HIV-1 Env of NIH-050_CNE21 (HIV-1)
[12] = target: HIV-1 Env of NIH-052_CNE30 (HIV-1)
[13] = target: HIV-1 Env of NIH-064_0260.v5.c1 (HIV-1)
[14] = target: HIV-1 Env of NIH-076_CNE5 (HIV-1)
[15] = target: HIV-1 Env of NIH-107_T251.18 (HIV-1)
[16] = target: HIV-1 Env of NIH-114_T257.31 (HIV-1)
[17] = target: HIV-1 Env of NIH-115_928.28 (HIV-1)
[18] = target: HIV-1 Env of isolate NIH-085_X2088 c9 (HIV-1)
[19] = target: HIV-1 Env of isolate NIH-086_X2131 C1 B5 (HIV-1)
[20] = target: HIV-1 Env of isolate NIH-098_89.F1 2 25 (HIV-1)
[21] = target: HIV-1 Env of pseudovirus NAC_89.6 (HIV-1)
[22] = target: HIV-1 Env of pseudovirus NAC_92TH021 (HIV-1)
[23] = target: HIV-1 Env of pseudovirus NAC_94UG103 (HIV-1)
[24] = target: HIV-1 Env of pseudovirus NAC_BG505 (HIV-1)
[25] = target: HIV-1 Env of pseudovirus NAC_BaL.26 (HIV-1)
[26] = target: HIV-1 Env of pseudovirus NAC_KNH1144 (HIV-1)
[27] = target: HIV-1 Env of pseudovirus NAC_WITO.33 (HIV-1)
[28] = target: HIV-1 Env of pseudovirus NIH-004_PVO.4 (HIV-1)
[29] = target: HIV-1 Env of pseudovirus NIH-007_CAAN5342.A2 (HIV-1)
[30] = target: HIV-1 Env of pseudovirus NIH-012_1012.11.TC21.3257 (HIV-1)
[31] = target: HIV-1 Env of pseudovirus NIH-019_Du422.1 (HIV-1)
[32] = target: HIV-1 Env of pseudovirus NIH-022_ZM233M.PB6 (HIV-1)
[33] = target: HIV-1 Env of pseudovirus NIH-031_HIV-16055.2.3 (HIV-1)
[34] = target: HIV-1 Env of pseudovirus NIH-039_Ce2060 G9 (HIV-1)
[35] = target: HIV-1 Env of pseudovirus NIH-047_Ce704809221 1B3 (HIV-1)
[36] = target: HIV-1 Env of pseudovirus NIH-059_Q461ENVe2 (HIV-1)
[37] = target: HIV-1 Env of pseudovirus NIH-063_0330.v4.c3 (HIV-1)
[38] = target: HIV-1 Env of pseudovirus NIH-065_191955 A11 (HIV-1)
[39] = target: HIV-1 Env of pseudovirus NIH-073_C3347.c11 (HIV-1)
[40] = target: HIV-1 Env of pseudovirus NIH-077_BJOX009000.02.4 (HIV-1)
[41] = target: HIV-1 Env of pseudovirus NIH-080_BJOX025000.01.1 (HIV-1)
[42] = target: HIV-1 Env of pseudovirus NIH-086_X2131 C1 B5 (clade G) (HIV-1)
[43] = target: HIV-1 Env of pseudovirus NIH-096_6952.v1.c20 (HIV-1)
[44] = target: HIV-1 Env of pseudovirus NIH-117_T278.5 (HIV-1)
[45] = target: HIV-1 Env of pseudovirus NIH-119_T211.9 (HIV-1)
[46] = target: envelope protein of control pseudovirus NAC_AMLV

4E10 (antibody) was tested, and the IC80 neutralization [1] was 0.472 µg/mL, the IC80 neutralization [2] was 17.1 µg/mL and the IC80 neutralization [3] was 11.6 µg/mL. The IC80 neutralization [4] was 3.53 µg/mL, the IC80 neutralization [5] was 3.44 µg/mL and the IC80 neutralization [6] was 42.6 µg/mL. It also gave an IC80 neutralization [7] of 4.19 µg/mL, an IC80 neutralization [8] of 4.55 µg/mL and an IC80 neutralization [9] of 15.7 µg/mL. It also gave an IC80 neutralization [10] of 1.43 µg/mL, an IC80 neutralization [11] of 2.15 µg/mL and an IC80 neutralization [12] of 16.6 µg/mL. The IC80 neutralization [13] was 6.08 µg/mL, the IC80 neutralization [14] was 5.9 µg/mL and the IC80 neutralization [15] was 3.97 µg/mL. For the same substance, the IC80 neutralization [16] was 4.71 µg/mL, the IC80 neutralization [17] was 0.438 µg/mL and the IC80 (µg/ml), TZM-bl pseudovirus neutralization [18] was > 50 µg/mL. It also gave an IC80 (µg/ml), TZM-bl pseudovirus neutralization [19] of 0.765 µg/mL, an IC80 (µg/ml), TZM-bl pseudovirus neutralization [20] of 21.7 µg/mL and a neutralization IC50 [21] of 2.77 µg/mL. It also gave a neutralization IC50 [22] of 0.348 µg/mL, a neutralization IC50 [23] of 1.77 µg/mL and a neutralization IC50 [24] of 1.15 µg/mL. The neutralization IC50 [25] was 4.2 µg/mL, the neutralization IC50 [26] was 11.5 µg/mL and the neutralization IC50 [27] was 0.435 µg/mL. It also gave a neutralization IC50 [28] of 9.59 µg/mL, a neutralization IC50 [29] of 2.84 µg/mL and a neutralization IC50 [30] of 2.06 µg/mL. It also gave a neutralization IC50 [31] of 1.42 µg/mL, a neutralization IC50 [32] of 1.05 µg/mL and a neutralization IC50 [33] of 1.59 µg/mL. For the same substance, the neutralization IC50 [34] was 1.24 µg/mL, the neutralization IC50 [35] was 0.134 µg/mL and the neutralization IC50 [36] was 2.33 µg/mL. The neutralization IC50 [37] was 0.963 µg/mL, the neutralization IC50 [38] was 0.011 µg/mL and the neutralization IC50 [39] was 0.034 µg/mL. The neutralization IC50 [40] was 0.389 µg/mL, the neutralization IC50 [41] was 0.377 µg/mL and the IC50 (µg/ml), TZM-bl cell neutralization assay, pseudovirus [42] was 0.194 µg/mL. The neutralization IC50 [43] was 0.721 µg/mL, the neutralization IC50 [44] was 1.48 µg/mL and the neutralization IC50 [45] was 1.2 µg/mL. For the same substance, the IC50 (µg/ml), TZM-bl cell neutralization assay, control pseudovirus [46] was > 50 µg/mL and the IC80 (µg/ml), TZM-bl pseudovirus neutralization [46] was > 50 µg/mL.
For PGZL1 (antibody), the IC80 neutralization [1] was 2.2 µg/mL, the IC80 neutralization [2] was > 50 µg/mL and the IC80 neutralization [3] was > 50 µg/mL. For the same substance, the IC80 neutralization [4] was > 50 µg/mL, the IC80 neutralization [5] was 24.6 µg/mL and the IC80 neutralization [6] was > 50 µg/mL. For the same substance, the IC80 neutralization [7] was > 50 µg/mL, the IC80 neutralization [8] was 25.6 µg/mL and the IC80 neutralization [9] was > 50 µg/mL. For the same substance, the IC80 neutralization [10] was 12.1 µg/mL, the IC80 neutralization [11] was 17.8 µg/mL and the IC80 neutralization [12] was > 50 µg/mL. The IC80 neutralization [13] was > 50 µg/mL, the IC80 neutralization [14] was > 50 µg/mL and the IC80 neutralization [15] was > 50 µg/mL. The IC80 neutralization [16] was > 50 µg/mL, the IC80 neutralization [17] was 5.45 µg/mL and the IC80 (µg/ml), TZM-bl pseudovirus neutralization [18] was > 50 µg/mL. The IC80 (µg/ml), TZM-bl pseudovirus neutralization [19] was 3.5 µg/mL, the IC80 (µg/ml), TZM-bl pseudovirus neutralization [20] was > 50 µg/mL and the neutralization IC50 [21] was 25.3 µg/mL. For the same substance, the neutralization IC50 [22] was 2.12 µg/mL, the neutralization IC50 [23] was 24.1 µg/mL and the neutralization IC50 [24] was 16.7 µg/mL. For the same substance, the neutralization IC50 [25] was > 50 µg/mL, the neutralization IC50 [26] was > 50 µg/mL and the neutralization IC50 [27] was 3.56 µg/mL. For the same substance, the neutralization IC50 [28] was 49 µg/mL, the neutralization IC50 [29] was 34 µg/mL and the neutralization IC50 [30] was 13.3 µg/mL. It also gave a neutralization IC50 [31] of 7.51 µg/mL, a neutralization IC50 [32] of 5.9 µg/mL and a neutralization IC50 [33] of 10.9 µg/mL. For the same substance, the neutralization IC50 [34] was 15 µg/mL, the neutralization IC50 [35] was 0.738 µg/mL and the neutralization IC50 [36] was 20.2 µg/mL. For the same substance, the neutralization IC50 [37] was 22.1 µg/mL, the neutralization IC50 [38] was 1.89 µg/mL and the neutralization IC50 [39] was 0.055 µg/mL. For the same substance, the neutralization IC50 [40] was 3.97 µg/mL, the neutralization IC50 [41] was 7.13 µg/mL and the IC50 (µg/ml), TZM-bl cell neutralization assay, pseudovirus [42] was 0.885 µg/mL. The neutralization IC50 [43] was 0.89 µg/mL, the neutralization IC50 [44] was 23.5 µg/mL and the neutralization IC50 [45] was 13.2 µg/mL. The IC50 (µg/ml), TZM-bl cell neutralization assay, control pseudovirus [46] was > 50 µg/mL and the IC80 (µg/ml), TZM-bl pseudovirus neutralization [46] was > 50 µg/mL.
VRC01 (antibody) gave an IC80 neutralization [1] of 0.28 µg/mL, an IC80 neutralization [2] of 0.037 µg/mL and an IC80 neutralization [3] of 0.223 µg/mL. The IC80 neutralization [4] was > 50 µg/mL, the IC80 neutralization [5] was 1.98 µg/mL and the IC80 neutralization [6] was 3.63 µg/mL. It also gave an IC80 neutralization [7] of 10.1 µg/mL, an IC80 neutralization [8] of 0.275 µg/mL and an IC80 neutralization [9] of 1.49 µg/mL. For the same substance, the IC80 neutralization [10] was 0.512 µg/mL, the IC80 neutralization [11] was 0.848 µg/mL and the IC80 neutralization [12] was 2.38 µg/mL. The IC80 neutralization [13] was 0.516 µg/mL, the IC80 neutralization [14] was 0.238 µg/mL and the IC80 neutralization [15] was 8.63 µg/mL. The IC80 neutralization [16] was 6.57 µg/mL, the IC80 neutralization [17] was 0.99 µg/mL and the IC80 (µg/ml), TZM-bl pseudovirus neutralization [18] was > 50 µg/mL. For the same substance, the IC80 (µg/ml), TZM-bl pseudovirus neutralization [19] was 0.284 µg/mL, the IC80 (µg/ml), TZM-bl pseudovirus neutralization [20] was > 50 µg/mL and the neutralization IC50 [21] was 0.807 µg/mL. It also gave a neutralization IC50 [22] of 0.324 µg/mL, a neutralization IC50 [23] of 0.187 µg/mL and a neutralization IC50 [24] of 0.056 µg/mL. It also gave a neutralization IC50 [25] of 0.01 µg/mL, a neutralization IC50 [26] of 0.134 µg/mL and a neutralization IC50 [27] of 0.055 µg/mL. It also gave a neutralization IC50 [28] of 0.192 µg/mL, a neutralization IC50 [29] of 0.691 µg/mL and a neutralization IC50 [30] of 0.081 µg/mL. For the same substance, the neutralization IC50 [31] was > 50 µg/mL, the neutralization IC50 [32] was 1.41 µg/mL and the neutralization IC50 [33] was 0.053 µg/mL. The neutralization IC50 [34] was 0.109 µg/mL, the neutralization IC50 [35] was 0.32 µg/mL and the neutralization IC50 [36] was 0.195 µg/mL. For the same substance, the neutralization IC50 [37] was 0.033 µg/mL, the neutralization IC50 [38] was 0.091 µg/mL and the neutralization IC50 [39] was 0.063 µg/mL. The neutralization IC50 [40] was 0.565 µg/mL, the neutralization IC50 [41] was 6.04 µg/mL and the IC50 (µg/ml), TZM-bl cell neutralization assay, pseudovirus [42] was 0.073 µg/mL. The neutralization IC50 [43] was 0.025 µg/mL, the neutralization IC50 [44] was > 50 µg/mL and the neutralization IC50 [45] was 12.8 µg/mL. The IC50 (µg/ml), TZM-bl cell neutralization assay, control pseudovirus [46] was > 50 µg/mL and the IC80 (µg/ml), TZM-bl pseudovirus neutralization [46] was > 50 µg/mL.
